Reference: IntAct's records for PubMed 32073997

B1: AKT-interacting protein (Homo sapiens), Q9H8T0 (parent)
chain: MNPFWSMSTSSVRKRSEGEEKTLTGDVKTSPPRTAPKKQLPSIPKNALPITKPTSPAPAAQSTNGTHASYGPFYLEYSLLAEFTLVVKQKLPGVYVQPSYRSALMWFGVIFIRHGLYQDGVFKFTVYIPDNYPDGDCPRLVFDIPVFHPLVDPTSGELDVKRAFAKWRRNHNHIWQVLMYARRVFYKIDTASPLNPEAAVLYEKDIQLFKSKVVDSVKVCTARLFDQPKIEDPYAISFSPWNPSVHDEAREKMLTQKKPEEQHNKSVHVAGLSWVKPGSVQPFSKEEKTVAT
partner: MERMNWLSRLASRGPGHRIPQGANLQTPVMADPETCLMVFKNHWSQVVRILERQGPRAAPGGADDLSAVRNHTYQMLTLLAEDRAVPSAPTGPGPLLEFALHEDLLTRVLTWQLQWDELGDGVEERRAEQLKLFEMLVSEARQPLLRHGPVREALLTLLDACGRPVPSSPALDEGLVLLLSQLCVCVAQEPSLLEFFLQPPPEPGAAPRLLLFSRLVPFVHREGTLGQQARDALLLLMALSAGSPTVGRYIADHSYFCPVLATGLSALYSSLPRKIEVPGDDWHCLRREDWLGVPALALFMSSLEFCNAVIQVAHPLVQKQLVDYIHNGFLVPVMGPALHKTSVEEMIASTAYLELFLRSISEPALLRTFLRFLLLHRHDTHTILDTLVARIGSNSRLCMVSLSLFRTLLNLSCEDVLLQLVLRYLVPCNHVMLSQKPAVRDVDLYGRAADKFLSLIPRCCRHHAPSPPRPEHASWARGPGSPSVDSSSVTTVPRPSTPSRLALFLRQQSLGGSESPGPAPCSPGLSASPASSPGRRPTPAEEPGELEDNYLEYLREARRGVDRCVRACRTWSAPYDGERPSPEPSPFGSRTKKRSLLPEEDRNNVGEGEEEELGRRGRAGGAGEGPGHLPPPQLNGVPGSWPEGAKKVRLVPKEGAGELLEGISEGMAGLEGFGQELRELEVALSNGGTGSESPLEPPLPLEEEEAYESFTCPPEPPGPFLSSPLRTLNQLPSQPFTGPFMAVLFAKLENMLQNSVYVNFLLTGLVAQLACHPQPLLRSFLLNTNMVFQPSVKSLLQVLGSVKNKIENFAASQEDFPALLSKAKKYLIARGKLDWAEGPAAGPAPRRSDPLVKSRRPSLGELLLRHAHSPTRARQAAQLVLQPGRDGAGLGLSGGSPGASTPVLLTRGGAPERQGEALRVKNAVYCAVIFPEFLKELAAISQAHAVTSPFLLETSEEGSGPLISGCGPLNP
B2: AKT-interacting protein (Homo sapiens), Q9H8T0 (parent)
chain: B1 chain
partner: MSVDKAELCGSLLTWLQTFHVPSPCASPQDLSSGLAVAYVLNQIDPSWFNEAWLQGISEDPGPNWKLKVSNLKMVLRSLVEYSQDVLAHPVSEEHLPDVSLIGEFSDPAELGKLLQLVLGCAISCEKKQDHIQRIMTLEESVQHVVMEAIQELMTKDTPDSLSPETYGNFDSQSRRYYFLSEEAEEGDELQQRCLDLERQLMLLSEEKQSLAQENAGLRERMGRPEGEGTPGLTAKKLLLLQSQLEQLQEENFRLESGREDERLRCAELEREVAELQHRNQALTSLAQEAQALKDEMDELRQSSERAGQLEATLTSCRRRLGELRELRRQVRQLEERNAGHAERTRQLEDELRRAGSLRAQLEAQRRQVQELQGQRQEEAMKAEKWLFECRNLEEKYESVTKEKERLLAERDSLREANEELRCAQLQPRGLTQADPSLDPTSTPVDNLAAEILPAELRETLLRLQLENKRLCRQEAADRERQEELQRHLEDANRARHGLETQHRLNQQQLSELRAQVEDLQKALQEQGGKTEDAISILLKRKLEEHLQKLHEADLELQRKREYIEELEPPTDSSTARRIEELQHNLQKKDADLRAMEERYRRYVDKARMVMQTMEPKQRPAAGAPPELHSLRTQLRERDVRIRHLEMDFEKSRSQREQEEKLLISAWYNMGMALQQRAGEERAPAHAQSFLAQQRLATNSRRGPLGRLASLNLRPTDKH
B3: AKT-interacting protein (Homo sapiens), Q9H8T0 (parent)
chain: B1 chain
partner: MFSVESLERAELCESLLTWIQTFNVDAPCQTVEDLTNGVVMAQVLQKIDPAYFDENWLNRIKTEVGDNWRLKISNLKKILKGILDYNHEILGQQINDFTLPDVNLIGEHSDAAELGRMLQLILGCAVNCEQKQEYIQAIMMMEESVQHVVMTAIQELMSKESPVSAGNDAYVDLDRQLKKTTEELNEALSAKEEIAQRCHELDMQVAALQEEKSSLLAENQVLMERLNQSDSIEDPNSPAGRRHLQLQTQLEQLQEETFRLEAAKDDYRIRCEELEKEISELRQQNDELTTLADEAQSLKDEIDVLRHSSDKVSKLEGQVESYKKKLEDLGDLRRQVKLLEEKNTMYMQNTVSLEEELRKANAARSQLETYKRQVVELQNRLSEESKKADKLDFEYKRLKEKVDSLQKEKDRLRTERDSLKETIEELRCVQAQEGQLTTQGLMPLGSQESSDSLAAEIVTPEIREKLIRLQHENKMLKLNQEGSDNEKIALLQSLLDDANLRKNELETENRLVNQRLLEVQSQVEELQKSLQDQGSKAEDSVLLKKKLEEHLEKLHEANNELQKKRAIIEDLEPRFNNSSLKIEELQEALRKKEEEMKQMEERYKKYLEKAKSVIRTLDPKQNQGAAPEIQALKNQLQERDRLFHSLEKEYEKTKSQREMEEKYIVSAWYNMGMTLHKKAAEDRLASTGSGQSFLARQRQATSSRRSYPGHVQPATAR

Variants of: B1
Conditions: with FHIP1B

Variant	effect of a mutation on the interaction
MNPFWSMSTSSVRKRSEGEEKTLTGDVKTSPPRTAPKKQLPSIPKNALPITKPTSPAPAAQSTNGTHASYGPFYLEYSLLAEFTLVVKQKLPGVYVQPSYRSALMAAGVIFIRHGLYQDGVFKFTVYIPDNYPDGDCPRLVFDIPVFHPLVDPTSGELDVKRAFAKWRRNHNHIWQVLMYARRVFYKIDTASPLNPEAAVLYEKDIQLFKSKVVDSVKVCTARLFDQPKIEDPYAISFSPWNPSVHDEAREKMLTQKKPEEQHNKSVHVAGLSWVKPGSVQPFSKEEKTVAT [W106A;F107A]	disrupting interaction strength

Variants of: B2
Conditions: with hook2_human HOOK2, Q96ED9

Variant	effect of a mutation on the interaction
MNPFWSMSTSSVRKRSEGEEKTLTGDVKTSPPRTAPKKQLPSIPKNALPITKPTSPAPAAQSTNGTHASYGPFYLEYSLLAEFTLVVKQKLPGVYVQPSYRSALMAAGVIFIRHGLYQDGVFKFTVYIPDNYPDGDCPRLVFDIPVFHPLVDPTSGELDVKRAFAKWRRNHNHIWQVLMYARRVFYKIDTASPLNPEAAVLYEKDIQLFKSKVVDSVKVCTARLFDQPKIEDPYAISFSPWNPSVHDEAREKMLTQKKPEEQHNKSVHVAGLSWVKPGSVQPFSKEEKTVAT [W106A;F107A]	disrupting interaction strength

Variants of: B3
Conditions: with hook3_human HOOK3, Q86VS8

Variant	effect of a mutation on the interaction
MNPFWSMSTSSVRKRSEGEEKTLTGDVKTSPPRTAPKKQLPSIPKNALPITKPTSPAPAAQSTNGTHASYGPFYLEYSLLAEFTLVVKQKLPGVYVQPSYRSALMAAGVIFIRHGLYQDGVFKFTVYIPDNYPDGDCPRLVFDIPVFHPLVDPTSGELDVKRAFAKWRRNHNHIWQVLMYARRVFYKIDTASPLNPEAAVLYEKDIQLFKSKVVDSVKVCTARLFDQPKIEDPYAISFSPWNPSVHDEAREKMLTQKKPEEQHNKSVHVAGLSWVKPGSVQPFSKEEKTVAT [W106A;F107A]	decreasing interaction strength
